Reference: patent US20110159022A1, “Immunogenic Peptides Derived from the Midkine Protein, as an Anticancer Vaccine” (priority 2008, published 2011)
Residue numbers refer to the chain shown, from its start.

Legend:
[1] = biological target: HLA-DR1 (DRB1*0101) (Homo sapiens, UniProt P01903+P01911, A100R/D57E/F55L/F60I/F76Y/I96L/L162R/M171V/P40L/Q125E/R42F/V115G/Y59C); assay type: binding; conditions: ratio of IC50 of competitor peptide to IC50 of reference peptide; mean of at least two independent experiments; less than 100 = active
[2] = biological target: HLA-DR3 (DRB1*0301) (Homo sapiens, UniProt P01903+P01911, A100K/A102G/A103R/A169T/F55Y/I96L/K41T/L162R/M171V/P40S/Q125H/Q178H/Q39Y/R42S/S66N/T106N/T262R/W38E/Y61H); experiment: HLA II/peptide competition binding assay, DR3; conditions: ratio of IC50 of competitor peptide to IC50 of reference peptide; mean of at least two independent experiments; less than 100 = active
[3] = biological target: HLA-DR4 (DRB1*0401) (Homo sapiens, UniProt P01903+P01911, A100K/A169T/F76Y/I96L/K127E/L162R/M171V/N62H/P40V/Q125Y/R42H/S133A/S149N/S66Y/V115G/V209L/W38E); experiment: HLA II/peptide competition binding assay, DR4; conditions: ratio of IC50 of competitor peptide to IC50 of reference peptide; mean of at least two independent experiments; less than 100 = active
[4] = biological target: HLA-DR7 (DRB1*0701) (Homo sapiens, UniProt P01903+P01911, A100R/A102G/A103Q/D57E/D86V/E43K/F76Y/K127E/L162R/M171V/P40G/Q125H/Q99D/R33Q/R42Y/R54Q/S133A/S66F/T210M/V115G/Y107V/Y59L/Y89S); experiment: HLA II/peptide competition binding assay, DR7; conditions: ratio of IC50 of competitor peptide to IC50 of reference peptide; mean of at least two independent experiments; less than 100 = active
[5] = biological target: HLA-DR13 (DRB1*1301) (Homo sapiens, UniProt P01903+P01911, A100E/A169T/K41T/L162R/M171V/P40S/Q125H/Q178H/Q39Y/Q99D/R42S/S66N/T262R/W38E/Y61H); experiment: HLA II/peptide competition binding assay, DR13; conditions: ratio of IC50 of competitor peptide to IC50 of reference peptide; mean of at least two independent experiments; less than 100 = active
[6] = biological target: HLA-DR15 (DRB1*1501) (Homo sapiens, UniProt P01903+P01911); experiment: HLA II/peptide competition binding assay, DR15; conditions: ratio of IC50 of competitor peptide to IC50 of reference peptide; mean of at least two independent experiments; less than 100 = active
[7] = biological target: HLA-DRB3 (DRB3*0101) (Homo sapiens, UniProt P01903+P79483); experiment: HLA II/peptide competition binding assay, DRB3; conditions: ratio of IC50 of competitor peptide to IC50 of reference peptide; mean of at least two independent experiments; less than 100 = active
[8] = biological target: HLA-DRB4 (DRB4*0101) (Homo sapiens, UniProt P01903+P13762, G164S); experiment: HLA II/peptide competition binding assay, DRB4; conditions: ratio of IC50 of competitor peptide to IC50 of reference peptide; mean of at least two independent experiments; less than 100 = active
[9] = biological target: HLA-DRB5 (DRB5*0101) (Homo sapiens, UniProt P01903+Q30154); experiment: HLA II/peptide competition binding assay, DRB5; conditions: ratio of IC50 of competitor peptide to IC50 of reference peptide; mean of at least two independent experiments; less than 100 = active
[10] = biological target: T1, HLA-DP401 (DPB1*0401) (Homo sapiens, UniProt P04440+P20036); assay type: binding; conditions: ratio of IC50 of competitor peptide to IC50 of reference peptide; mean of at least two independent experiments; less than 100 = active
T1 sequence (P04440 30-258): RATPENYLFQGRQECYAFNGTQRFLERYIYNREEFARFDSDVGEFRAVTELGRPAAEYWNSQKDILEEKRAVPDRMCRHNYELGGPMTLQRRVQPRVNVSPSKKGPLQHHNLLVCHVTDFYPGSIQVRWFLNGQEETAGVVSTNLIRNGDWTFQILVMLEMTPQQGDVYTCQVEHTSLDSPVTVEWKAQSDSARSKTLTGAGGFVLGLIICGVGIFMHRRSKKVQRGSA
T1 sequence (P20036 29-260): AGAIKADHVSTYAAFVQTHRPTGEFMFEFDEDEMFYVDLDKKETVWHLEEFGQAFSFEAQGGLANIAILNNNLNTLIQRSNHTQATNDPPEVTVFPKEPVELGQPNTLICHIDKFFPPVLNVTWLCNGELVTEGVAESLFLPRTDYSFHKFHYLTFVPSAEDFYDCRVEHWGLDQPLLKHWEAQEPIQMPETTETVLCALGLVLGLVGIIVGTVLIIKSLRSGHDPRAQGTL

[11] = tested on: 12 predominant HLA II molecules; experiment: HLA II/peptide binding assays, count over the panel; parameters: species or system human; conditions: relative activity of less than 100 characterizes the active peptides
Description: The assays for binding to HLA II molecules are competition binding assays with immunoenzymatic visualization, as described in U.S. Pat. No. 6,649,166 and PCT international application WO 03/040299, respectively, for the HLA-DR and HLA-DP4 molecules. The implementation of these assays for measuring the binding activity of peptides derived from various antigens is illustrated in U.S. Pat. No. 6,649,166 and PCT international applications WO 02/090382, WO 03/040299 and WO 2004/014936.
The sensitivity of each test is reflected by the IC50 values observed with the nonbiotinylated peptides which correspond to the tracers. […] The results are expressed in the form of relative activity (ratio of the IC50 of the competitor peptide to that of the reference peptide (nonbiotinylated peptide which corresponds to the tracer)). A relative activity of less than 100 characterizes the active peptides.

[12] = biological target: T2, HLA-DP402 (DPB1*0402) (Homo sapiens, UniProt P04440+P20036, A65V/A84D/A85E/L207M); assay type: binding; conditions: ratio of IC50 of competitor peptide to IC50 of reference peptide; mean of at least two independent experiments; less than 100 = active
T2 sequence (P04440 30-258 A65V/A84D/A85E): T1 sequence (P04440 30-258) with A36V, A55D, A56E
T2 sequence (P20036 29-260): T1 sequence (P20036 29-260)

[13] = biological target: HLA-DR11 (DRB1*1101) (Homo sapiens, UniProt P01903+P01911, A100R/A169T/A87E/I96F/K41T/L162R/M171V/P40S/Q125H/Q178H/Q39Y/Q99D/R42S/S66Y/T262R/V115G/W38E); assay type: binding; conditions: ratio of IC50 of competitor peptide to IC50 of reference peptide; mean of at least two independent experiments; less than 100 = active

| Substance | Relative binding activity, DR1 [1] | Relative binding activity, DR3 [2] | Relative binding activity, DR4 [3] | Relative binding activity, DR7 [4] | Relative binding activity, DR13 [5] | Relative binding activity, DR15 [6] | Relative binding activity, DRB3 [7] | Relative binding activity, DRB4 [8] | Relative binding activity, DRB5 [9] | Relative binding activity, DP401 [10] | Total (number of the 12 predominant HLA II molecules bound) [11] | Relative binding activity, DP402 [12] | Relative binding activity, DR11 [13] |
| --- | --- | --- | --- | --- | --- | --- | --- | --- | --- | --- | --- | --- | --- |
| A E W A W G P C T P S S K D C (AEWAWGPCTPSSKDC) [MDK 38-52] | 1 305 | >419 | 1 859 | >2 479 | >2 537 | >529 | >485 | >28 868 | >2 100 | >879 | 0 | – | – |
| C G V G F R E G T C G A Q T Q (CGVGFREGTCGAQTQ) [MDK 52-64] | – | >419 | – | >2 479 | >2 537 | >529 | >485 | >28 868 | >2 100 | >879 | 1 | >976 | – |
| C K Y K F E N W G A C D G G T (CKYKFENWGACDGGT) [MDK 84-98] | 187 | >419 | – | >2 479 | >2 537 | 141 | >485 | >28 868 | – | – | 2 | – | >1 086 |
| C N W K K E F G A D C K Y K F (CNWKKEFGADCKYKF) [MDK 74-88] | – | – | >1 812 | >2 479 | >2 537 | >529 | – | >28 868 | – | >879 | 1 | >976 | 1 231 |
| C R V P C N W K K E F G A D C (CRVPCNWKKEFGADC) [MDK 70-84] | – | >419 | 1 562 | >2 479 | >2 537 | >529 | – | >28 868 | >2 100 | – | 2 | >976 | >1 086 |
| E N W G A C D G G T G T K V R (ENWGACDGGTGTKVR) [MDK 89-103] | 1 460 | >419 | >1 812 | >2 479 | >2 537 | >529 | 2 333 | >28 868 | >2 100 | >879 | 0 | >976 | >1 086 |
